Here are results for 78 sequences from the supplement of paper PMC10126150.

± gives the standard deviation of the averaged measurements.
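Note: ATP exposure 15 min at 22 °C before imaging.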

For this data set, the system named is ATP. The data set is described as follows: switch fluorescence ratio, 500 uM ATP over buffer (Cy3 cluster intensity, sum of 5 cycles each) (fold (ratio)); higher = stronger signal-on switching upon ATP binding; sequences stand for … in TCGTCGGCAGCGTCAGATGTGTATAAGAGACAGTTTTTTTTTTTTTTTTTTTTTTTTT…TC. The conditions noted are these: aptamer strand: ATP DNA aptamer (quencher-CACCTGGGGGAGTATTGCGGAGGAAGG + anchor), 100 nM annealed; ATP concentration: 500 uM. A digest of the protocol:
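After annealing to 100 nM quencher-labelled ATP aptamer, Cy3-labelled switching-strand clusters on a modified Illumina MiSeq flow-cell were imaged in selection buffer. A second image followed after 15 min with 500 uM ATP at 22 °C, and five such buffer/ATP cycles were done, each separated by NaOH stripping and re-annealing. The fluorescence ratio, averaged per switch-domain sequence, is summed target-cycle over summed buffer-cycle Cy3 intensity per cluster, with clusters outside 100-1000 RFU excluded.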
AATCATTTTT: the switch fluorescence ratio turned out to be 0.986 ± 0.026. The result for ATAGCGCCG reads 1.03 ± 0.035; that for AAGGCGGGTT, 0.9894 ± 0.0085. Turning to GAAGTGTGGC, the switch fluorescence ratio stood at 1.08 ± 0.031.

Turning to GATCGTGAGT, the switch fluorescence ratio worked out at 1 ± 0.015.

GCAAAAAATT: the switch fluorescence ratio was determined as 1.01 ± 0.025.

On to TAGTGCTGCA, for which the switch fluorescence ratio was 0.9692 ± 0.0012.

On to CCAGAGGGGT, for which the switch fluorescence ratio is 1.04 ± 0.02. The result for GATGTCTGCT reads 1.019 ± 0.0098; that for TTGGGTTAGC, 1.03 ± 0.037. As to TCTTGGGCTG, the switch fluorescence ratio was 0.9719 ± 0.0073. The same measure for TGCGTGTTTT: 1.03 ± 0.015; for AGTAATGTGC: 0.996 ± 0.022. As to GCTGTTAATG, the switch fluorescence ratio was found to be 0.984 ± 0.006.

Turning to CATGCCAAGC, the switch fluorescence ratio came to 1.15 ± 0.045.

With GCCTGGGACC, the switch fluorescence ratio is 0.996 ± 0.022. The same measure for CAAAAGTTGT: 0.992 ± 0.043; for AATGCTGTAT: 0.985 ± 0.011. The same measure for GCAGGAATTC: 1.05 ± 0.042; for AACCTCATGC: 1.17 ± 0.086. The same measure for CATTCATGTT: 0.985 ± 0.024. Take GTTGTTAACT: the switch fluorescence ratio stood at 0.999 ± 0.048. For ATCTTCAACT, the switch fluorescence ratio was found to be 1.052 ± 0.01. Turning to AGGGAGGTTT, the switch fluorescence ratio turned out to be 0.944 ± 0.073. Consider AAAAACTAAT, for which the switch fluorescence ratio is 0.992 ± 0.088.

In the case of GTGGATAGTC, the switch fluorescence ratio was determined as 0.992 ± 0.066. The result for TCAGGGATGG reads 0.984 ± 0.042; that for AAATTGGTTT, 0.995 ± 0.032; that for TGGTGATTAG, 0.995 ± 0.023. The result for CGTGTTAATG reads 0.989 ± 0.037; that for TACATTGTGC, 1.01 ± 0.015; that for GAATCATAGT, 1.003 ± 0.0083.

For TGTAGGAGAC, the switch fluorescence ratio was 1.24 ± 0.33. The same measure for GCGAATCGCT: 0.9675 ± 0.0058.

For TTTACAGGGT, the switch fluorescence ratio turned out to be 1.03 ± 0.036.

TTCCGAGATA: the switch fluorescence ratio was determined as 1.119 ± 0.0079. The same measure for GATGGAACTT: 1.02 ± 0.053. For the sequence CATTGGGTGT, the switch fluorescence ratio is 1.03 ± 0.0098. Turning to AATGTTCGGT, the switch fluorescence ratio is 0.989 ± 0.011.

GCTTCCTAAG: the switch fluorescence ratio was determined as 1.139 ± 0.0072.

Regarding TGCATGTCCT, the switch fluorescence ratio was found to be 1.029 ± 0.0088.

Turning to TGGTGGGGTC, the switch fluorescence ratio is 1 ± 0.034. The result for CGGTAATGTG reads 1.03 ± 0.035; that for GCGAGGGTGG, 1.02 ± 0.018; that for TCGGCGGTTT, 0.977 ± 0.058. The result for TGATGTAGAG reads 0.99 ± 0.029.

Take GGTGGTCAGC: the switch fluorescence ratio amounted to 1.012 ± 0.0049. The same measure for TGGTTTAGTT: 0.998 ± 0.017.

With GGATTTACGC, the switch fluorescence ratio was 1.03 ± 0.03. The result for GATCGCCCCG reads 1 ± 0.02. As to GGCCCTACAG, the switch fluorescence ratio amounted to 1.01 ± 0.036. As for ACTGTTAGCA, the switch fluorescence ratio turned out to be 1.061 ± 0.0046.

Regarding GCCATGGGCA, the switch fluorescence ratio was 1.002 ± 0.0053. Turning to GGGGCGGCCC, the switch fluorescence ratio was determined as 1.03 ± 0.049. Regarding GGATGTAAGA, the switch fluorescence ratio came to 1.1 ± 0.18. The same measure for AGATTGGGCT: 0.997 ± 0.03; for TGGATCATGG: 0.9753 ± 0.009; for TAGCGAAAAA: 0.992 ± 0.016. The same measure for GTTTTTAAGA: 1.03 ± 0.022; for AAGATGTAGT: 0.994 ± 0.017; for AGAAGGCAAC: 1.015 ± 0.0017. The result for AACGTAGGAC reads 1.1 ± 0.014; that for GCGGGGAGGT, 1.01 ± 0.055. TTTTTTGAAC: the switch fluorescence ratio was determined as 1.01 ± 0.03. With ACGAGGTTGG, the switch fluorescence ratio stood at 1.04 ± 0.084. The result for TGCCGGGGAC reads 1.04 ± 0.034; that for TCCGGTGTG, 0.97 ± 0.015; that for TTGTGGCTGT, 1.01 ± 0.023. Turning to GCGGTAACGT, the switch fluorescence ratio is 0.9765 ± 0.0069. The result for CATCAGGAGG reads 0.961 ± 0.035; that for GACTTCGGGA, 1.13 ± 0.052; that for GTTTGAGGGC, 0.985 ± 0.052. The result for AATATGTAAT reads 0.989 ± 0.021; that for AATTTTTCAG, 0.985 ± 0.018. The result for AGGATAGCAA reads 1.3 ± 0.023. As to ATTTCCCGAT, the switch fluorescence ratio turned out to be 0.979 ± 0.012. Regarding ACGAGCGCGT, the switch fluorescence ratio was found to be 1.02 ± 0.027. The same measure for TTAAAGTTTT: 1.01 ± 0.032.
